Consider 1 substance from article doi:10.1101/2020.10.06.328112.

Test [1] has as its target Recombinant human cyclophilin A (human) (UniProt P62937). The test can be described thus: native MS.
Test [2] has the same target. The test can be described thus: native MS. This is another data set of the same source.

Read-outs that look alike come from different tables or passages of the source.

On to “Recombinant human cyclophilin A (from UniProt P62937 1-165) (enzyme)”, for which the stoichiometry N in test [1] and in test [2] was 2 in each case.
